Among the data in the supplement of paper PMC10567573 are protein stability index values, retold here.

B1: FUT8 (parent)
chain: NWRYATGGWETVFRPVSETCTDRS
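Further: lentivirally expressed fusions sorted by FACS into six bins by GFP to DsRed ratio, PSI derived from sequencing read proportions per bin multiplied by bin number.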

The variants in this data set derive from B1. As to the kind of experiment: protein stability index of a GFP-peptide fusion (GPS, HEK-293T) (PSI 1-6); higher = more stable. The conditions noted are these: c terminus: a fixed tail appended.
For the variant NWRYATGGWETVFRPVSETCTDRR [S24R], the protein stability index was 1.47.
As for NWRYATGGWETVFRPVSETCTDRV [S24V], the protein stability index stood at 2.67.
On to NWRYATGGWETVFRPVSETCTDRI [S24I], for which the protein stability index was 1.71.
For the variant NWRYATGGWETVFRPVSETCTDRN [S24N], the protein stability index was 2.44.
Regarding NWRYATGGWETVFRPVSETCTDRD [S24D], the protein stability index stood at 1.76.
On to NWRYATGGWETVFRPVSETCTDRK [S24K], for which the protein stability index stood at 2.6.
In the case of NWRYATGGWETVFRPVSETCTDRF [S24F] it was 1.88; in that of NWRYATGGWETVFRPVSETCTDRY [S24Y], 1.86; in that of NWRYATGGWETVFRPVSETCTDRP [S24P], 2.33.
NWRYATGGWETVFRPVSETFTDRS [C20F]: the protein stability index was determined as 1.84.
For the variant NWRYATGGWETVFRPVSETMTDRS [C20M], the protein stability index stood at 2.33.
The value for NWRYATGGWETVFRPVSETPTDRS [C20P] was 1.81.
As for NWRYATGGWETVFRPVSETDTDRS [C20D], the protein stability index stood at 2.3.
In the case of NWRYATGGWETVFRPVSETNTDRS [C20N], the protein stability index came out at 2.6.
The value for NWRYATGGWETVFRPVSETITDRS [C20I] was 1.63; that for NWRYATGGWETVFRPVSETWTDRS [C20W] was 3.63; that for NWRYATGGWETVFRPVSETSTDRS [C20S] was 1.75.
In the case of NWRYATGGWETVFRPVSETTTDRS [C20T] it was 1.04; in that of NWRYATGGWETVFRPVSETYTDRS [C20Y], 2.24.
Consider NWRYATGGWETVFRPVSETHTDRS [C20H], for which the protein stability index was determined as 4.01.
For the variant NWRYATGGWETVFRPVSETATDRS [C20A], the protein stability index is 3.39.
In the case of NWRYATGGWETVFRPVSETLTDRS [C20L] it was 1.44; in that of NWRYATGGWETVFRPVSETVTDRS [C20V], 1.88.
In the case of NWRYATGGWETVFRPVSETQTDRS [C20Q] it was 1.84; in that of NWRYATGGWETVFRPVSENCTDRS [T19N], 2.09; in that of NWRYATGGWETVFRPVSEECTDRS [T19E], 2.86.
For the variant NWRYATGGWETVFRPVSEGCTDRS [T19G], the protein stability index stood at 2.72.
For NWRYATGGWETVFRPVSELCTDRS [T19L], the protein stability index stood at 2.3.
As for NWRYATGGWETVFRPVSESCTDRS [T19S], the protein stability index turned out to be 2.5.
Take NWRYATGGWETVFRPVSERCTDRS [T19R]: the protein stability index was found to be 2.24.
As to NWRYATGGWETVFRPVSEICTDRS [T19I], the protein stability index is 2.22.
The value for NWRYATGGWETVFRPVSEKCTDRS [T19K] was 1.84; that for NWRYATGGWETVFRPVSEMCTDRS [T19M] was 1.21; that for NWRYATGGWETVFRPVSEQCTDRS [T19Q] was 2.37.
As to NWRYATGGWETVFRPVSECCTDRS [T19C], the protein stability index amounted to 1.42.
With NWRYATGGWETVFRPVSEYCTDRS [T19Y], the protein stability index worked out at 3.12.
Take NWRYATGGWETVFRPVSEFCTDRS [T19F]: the protein stability index came out at 1.85.
Consider NWRYATGGWETVFRPVSEPCTDRS [T19P], for which the protein stability index was found to be 1.83.
Turning to NWRYATGGWETVFRPVSETCYDRS [T21Y], the protein stability index worked out at 1.84.
Consider NWRYATGGWETVFRPVSETCVDRS [T21V], for which the protein stability index was determined as 1.9.
Take NWRYATGGWETVFRPVSETCEDRS [T21E]: the protein stability index was determined as 1.55.
Regarding NWRYATGGWETVFRPVSETCMDRS [T21M], the protein stability index was determined as 3.38.
In the case of NWRYATGGWETVFRPVSETCRDRS [T21R], the protein stability index turned out to be 2.8.
Consider NWRYATGGWETVFRPVSETCPDRS [T21P], for which the protein stability index came out at 1.26.
Turning to NWRYATGGWETVFRPVSETCKDRS [T21K], the protein stability index stood at 2.49.
On to NWRYATGGWETVFRPVSETCADRS [T21A], for which the protein stability index was 1.39.
In the case of NWRYATGGWETVFRPVSETCDDRS [T21D], the protein stability index was found to be 1.34.
Turning to NWRYATGGWETVFRPVSETCHDRS [T21H], the protein stability index worked out at 1.56.
For the variant NWRYATGGWETVFRPVSETCFDRS [T21F], the protein stability index was 2.31.
In the case of NWRYATGGWETVFRPVSETCLDRS [T21L], the protein stability index was found to be 2.43.
Consider NWRYATGGWETVFRPVSETCGDRS [T21G], for which the protein stability index came out at 1.47.
Take NWRYATGGWETVFRPVSITCTDRS [E18I]: the protein stability index amounted to 2.05.
As to NWRYATGGWETVFRPVSLTCTDRS [E18L], the protein stability index stood at 1.97.
As to NWRYATGGWETVFRPVSGTCTDRS [E18G], the protein stability index amounted to 1.41.
NWRYATGGWETVFRPVSRTCTDRS [E18R]: the protein stability index amounted to 1.8.
Turning to NWRYATGGWETVFRPVSYTCTDRS [E18Y], the protein stability index is 2.18.
Regarding NWRYATGGWETVFRPVSQTCTDRS [E18Q], the protein stability index stood at 1.54.
Turning to NWRYATGGWETVFRPVSVTCTDRS [E18V], the protein stability index was 2.76.
Turning to NWRYATGGWETVFRPVSKTCTDRS [E18K], the protein stability index is 2.27.
On to NWRYATGGWETVFRPVSTTCTDRS [E18T], for which the protein stability index is 2.15.
On to NWRYATGGWETVFRPVSWTCTDRS [E18W], for which the protein stability index is 2.45.
As for NWRYATGGWETVFRPVSPTCTDRS [E18P], the protein stability index was 2.06.
As to NWRYATGGWETVFRPVSNTCTDRS [E18N], the protein stability index came to 1.75.
With NWRYATGGWETVFRPVSHTCTDRS [E18H], the protein stability index was 1.51.
Turning to NWRYATGGWETVFRPVSMTCTDRS [E18M], the protein stability index amounted to 1.4.
For the variant NWRYATGGWETVFRPVSFTCTDRS [E18F], the protein stability index stood at 2.36.
In the case of NWRYATGGWETVFRPVSDTCTDRS [E18D], the protein stability index worked out at 2.28.
Consider NWRYATGGWETVFRPVNETCTDRS [S17N], for which the protein stability index was 2.29.
In the case of NWRYATGGWETVFRPVFETCTDRS [S17F], the protein stability index amounted to 2.77.
Turning to NWRYATGGWETVFRPVYETCTDRS [S17Y], the protein stability index turned out to be 1.53.
In the case of NWRYATGGWETVFRPVQETCTDRS [S17Q] it was 2.67.
Consider NWRYATGGWETVFRPVRETCTDRS [S17R], for which the protein stability index came to 1.88.
In the case of NWRYATGGWETVFRPVIETCTDRS [S17I] it was 1.28.
For the variant NWRYATGGWETVFRPVTETCTDRS [S17T], the protein stability index was 1.64.
Turning to NWRYATGGWETVFRPVHETCTDRS [S17H], the protein stability index was found to be 1.85.
With NWRYATGGWETVFRPVWETCTDRS [S17W], the protein stability index turned out to be 2.42.
The value for NWRYATGGWETVFRPVMETCTDRS [S17M] was 1.28; that for NWRYATGGWETVFRPVGETCTDRS [S17G] was 3.4; that for NWRYATGGWETVFRPVSETCTNRS [D22N] was 1.24.
Take NWRYATGGWETVFRPVSETCTERS [D22E]: the protein stability index was 2.33.
As for NWRYATGGWETVFRPVSETCTRRS [D22R], the protein stability index came out at 1.84.
Regarding NWRYATGGWETVFRPVSETCTCRS [D22C], the protein stability index amounted to 1.93.
Regarding NWRYATGGWETVFRPVSETCTMRS [D22M], the protein stability index came to 1.9.
Turning to NWRYATGGWETVFRPVSETCTQRS [D22Q], the protein stability index came to 1.69.
In the case of NWRYATGGWETVFRPVSETCTLRS [D22L], the protein stability index amounted to 1.7.
In the case of NWRYATGGWETVFRPVSETCTSRS [D22S], the protein stability index stood at 2.43.
Regarding NWRYATGGWETVFRPVSETCTIRS [D22I], the protein stability index was determined as 2.98.
On to NWRYATGGWETVFRPVSETCTVRS [D22V], for which the protein stability index came out at 1.54.
Regarding NWRYATGGWETVFRPVSETCTYRS [D22Y], the protein stability index stood at 2.07.
Consider NWRYATGGWETVFRPVSETCTPRS [D22P], for which the protein stability index stood at 1.48.
NWRYATGGWETVFRPVSETCTWRS [D22W]: the protein stability index was 1.25.
In the case of NWRYATGGWETVFRPVSETCTHRS [D22H] it was 1.45; in that of NWRYATGGWETVFRPVSETCTKRS [D22K], 2.12.
The value for NWRYATGGWETVFRPVSETCTTRS [D22T] was 3.48.
